The record followed here is article PMC10329019, “Membrane translocation process revealed by in situ structures of type II secretion system secretins” (Nature Communications, 2023).

Data set [1] deals with the molecule itself. The data set is described as follows: cryo-EM structure; in situ cryo-ET subtomogram averaging of GspDα particles on the inner membrane of E. coli BL21 (DE3) minicells; about 32,000 particles, C15 symmetry, 9 Å; particle radius histogram.
Data set [2] deals with the molecule itself. The data set can be described thus: cryo-EM structure; in situ cryo-ET subtomogram averaging of particles on the outer membrane of E. coli minicells overexpressing GspDβ and GspS; 514 particles, C15 symmetry, 19 Å; C5 refinement as a test of symmetry.
Data set [3] deals with the molecule itself. The data set is described as follows: cryo-EM structure; in situ cryo-ET subtomogram averaging of particles on the outer membrane of E. coli minicells overexpressing only GspDβ; 723 particles, C15 symmetry, 16 Å; C5 refinement as a test of symmetry.

B1: GspDα secretin (E. coli K12 strain), no tag (natural protein, UniProt P45758 24-650, looked up)
chain: ENEQYGANFNNADIRQFVEIVGQHLGKTILIDPSVQGTISVRSNDTFSQQEYYQFFLSILDLYGYSVITLDNGFLKVVRSANVKTSPGMIADSSRPGVGDELVTRIVPLENVPARDLAPLLRQMMDAGSVGNVVHYEPSNVLILTGRASTINKLIEVIKRVDVIGTEKQQIIHLEYASAEDLAEILNQLISESHGKSQMPALLSAKIVADKRTNSLIISGPEKARQRITSLLKSLDVEESEEGNTRVYYLKYAKATNLVEVLTGVSEKLKDEKGNARKPSSSGAMDNVAITADEQTNSLVITADQSVQEKLATVIARLDIRRAQVLVEAIIVEVQDGNGLNLGVQWANKNVGAQQFTNTGLPIFNAAQGVADYKKNGGITSANPAWDMFSAYNGMAAGFFNGDWGVLLTALASNNKNDILATPSIVTLDNKLASFNVGQDVPVLSGSQTTSGDNVFNTVERKTVGTKLKVTPQVNEGDAVLLEIEQEVSSVDSSSNSTLGPTFNTRTIQNAVLVKTGETVVLGGLLDDFSKEQVSKVPLLGDIPLVGQLFRYTSTERAKRNLMVFIRPTIIRDDDVYRSLSKEKYTRYRQEQQQRIDGKSKALVGSEDLPVLDENTFNSHAPAPSSR
notes: The untagged vector was used for cryo-ET imaging; the His-tagged one only for blots; also called Klebsiella-type secretin; GspDα multimer; copies: 15
With B1, the stoichiometry N – broadly, a count of units in the complex or per binding partner – in data set [1] amounted to 15.

B2: GspDβ secretin (ETEC H10407 strain) with hexahistidine tag, from pETDuet-gspDβ-his-gspS, co-expressed with GspS (natural protein, UniProt E3PJ86 41-686, looked up)
chain: EEATFTANFKDTDLKSFIETVGANLNKTIIMGPGVQGKVSIRTMTPLNERQYYQLFLNLLEAQGYAVVPMENDVLKVVKSSAAKVEPLPLVGEGSDNYAGDEMVTKVVPVRNVSVRELAPILRQMIDSAGSGNVVNYDPSNVIMLTGRASVVERLTEVIQRVDHAGNRTEEVIPLDNASASEIARVLESLTKNSGENQPATLKSQIVADERTNSVIVSGDPATRDKMRRLIRRLDSEMERSGNSQVFYLKYSKAEDLVDVLKQVSGTLTAAKEEAEGTVGSGREIVSIAASKHSNALIVTAPQDIMQSLQSVIEQLDIRRAQVHVEALIVEVAEGSNINFGVQWASKDAGLMQFANGTQIPIGTLGAAISQAKPQKGSTVISENGATTINPDTNGDLSTLAQLLSGFSGTAVGVVKGDWMALVQAVKNDSSSNVLSTPSITTLDNQEAFFMVGQDVPVLTGSTVGSNNSNPFNTVERKKVGIMLKVTPQINEGNAVQMVIEQEVSKVEGQTSLDVVFGERKLKTTVLANDGELIVLGGLMDDQAGESVAKVPLLGDIPLIGNLFKSTADKKEKRNLMVFIRPTILRDGMAADGVSQRKYNYMRAEQIYRDEQGLSLMPHTAQPVLPAQNQALPPEVRAFLNAGRTR
notes: GspDβ, Vibrio-type type II secretion system secretin encoded in the T2SSβ operon, ETEC H10407 strain; Probably the same C-terminally tagged chain as m2 (surmised); also called Vibrio-type secretin; copies: 15
Turning to B2, the “stoichiometry N” value in data set [2] came to 15.

B3: GspDβ secretin (ETEC H10407 strain) with C-terminal hexahistidine tag, from pETDuet-gspDβ-his, expressed alone (natural protein, UniProt E3PJ86 41-686, looked up)
chain: B2 chain
notes: GspDβ, Vibrio-type type II secretion system secretin encoded in the T2SSβ operon, ETEC H10407 strain; The results name BL21(DE3) for this experiment, the methods name Rosetta (DE3) for cryo-ET imaging; also called Vibrio-type secretin; source: E. coli Rosetta (DE3) minicells (co-transformed with pBS58), pETDuet-gspDβ-his, overexpressed, imaged in the cells; copies: 15
As to B3, in data set [3], the “stoichiometry N” value was determined as 15.
